Measured values from patent publication US20240010753A1 (EPIMAB BIOTHERAPEUTICS HK, published 2024).
Substitutions are numbered along the chain they refer to.

B1: HuEM0006-01-24 (antibody, V domains shown)
VH: EVQLVQSGAEVKKPGASVKVSCKASGFSFTNYYVHWMRQAPGQGLEWMGWISPGSDNTKYNEKFKGRVTMTRDTSISTAYMELSRLRSDDTAVYYCARDDYGNYYFDYWGQGTTVTVSS
VL: DIVMTQSPDSLAVSLGERATINCKSSQSLLNARTRKNYLAWYQQKPGQPPKLLIYWASTRESGVPDRFSGSGSGTDFTLTISSLQAEDVAVYYCKQSYILRTFGGGTKVEIK
notes: only the variable domains are tied to it; also called HuEM1006-01-24
B2: HuEM0006-01-27 (antibody, V domains shown)
VH: B1 VH with M48I, M70L, R72A
VL: B1 VL
notes: only the variable domains are tied to it; also called HuEM1006-01-27
B3: R12 x CD3 FIT-Ig (bispecific antibody, human IgG1, kappa, lambda, L234A L235A)
chain 1: not shown
chain 2: QEQLVESGGRLVTPGGSLTLSCKASGFDFSAYYMSWVRQAPGKGLEWIATIYPSSGKTYYATWVNGRFTISSDNAQNTVDLQMNSLTAADRATYFCARDSYADDGALFNIWGPGTLVTISSASTKGPSVFPLAPSSKSTSGGTAALGCLVKDYFPEPVTVSWNSGALTSGVHTFPAVLQSSGLYSLSSVVTVPSSSLGTQTYICNVNHKPSNTKVDKKVEPKSC
chain 3: not shown
B4: D10 x CD3 FIT-Ig (bispecific antibody, human IgG1, kappa, L234A L235A)
chain 1: not shown
chain 2: QVQLKESGPGLVAPSQTLSITCTVSGFSLTSYGVHWVRQPPGKGLEWLGVIWAGGFTNYNSALKSRLSISKDNSKSQVLLKMTSLQTDDTAMYYCARRGSSYSMDYWGQGTSVTVSSASTKGPSVFPLAPSSKSTSGGTAALGCLVKDYFPEPVTVSWNSGALTSGVHTFPAVLQSSGLYSLSSVVTVPSSSLGTQTYICNVNHKPSNTKVDKKVEPKSC
chain 3: not shown
B5: ROR1-Tab2 (antibody, V domains shown)
VH: QVQLKESGPGLVAPSQTLSITCTVSGFSLTSYGVHWVRQPPGKGLEWLGVIWAGGFTNYNSALKSRLSISKDNSKSQVLLKMTSLQTDDTAMYYCARRGSSYSMDYWGQGTSVTVSS
VL: EIVLSQSPAITAASLGQKVTITCSASSNVSYIHWYQQRSGTSPRPWIYEISKLASGVPVRFSGSGSGTSYSLTISSMEAEDAAIYYCQQWNYPLITFGSGTKLEIQ
notes: also called clone D10; D10 as described in WO2012097313
B6: FIT1007-12B-5 (bispecific antibody, human IgG1, kappa, L234A L235A)
chain 1: not shown
chain 2: EVQLVQSGAEVKKPGSSVKVSCKASGYTFSRSWMNWVRQAPGQGLEWIGRIYPGNGDIKYNGNFKGRATITADKSTSTAYMELSSLRSEDTAVYYCAHIYYDFYYALDYWGQGTTVTVSSASTKGPSVFPLAPSSKSTSGGTAALGCLVKDYFPEPVTVSWNSGALTSGVHTFPAVLQSSGLYSLSSVVTVPSSSLGTQTYICNVNHKPSNTKVDKKVEPKSC
chain 3: not shown
notes: ROR1xCD3 FIT-Ig, same build as FIT1007-12B-1, no linkers
B7: FIT1007-12B-1 (bispecific antibody, human IgG1, kappa, L234A L235A)
chain 1: not shown
chain 2: B6 chain 2 with I48M, A68V
chain 3: not shown
notes: ROR1xCD3 FIT-Ig, chain #1 VL(ROR1)-CL-VH(CD3)-CH1-hinge-CH2-CH3, chain #2 VH(ROR1)-CH1, chain #3 VL(CD3)-CL, no linkers
B8: FIT1007-12B-2 (bispecific antibody, human IgG1, kappa, L234A L235A)
chain 1: not shown
chain 2: B6 chain 2
chain 3: not shown
notes: as for B6
B9: FIT1007-12B-3 (bispecific antibody, human IgG1, kappa, L234A L235A)
chain 1: not shown
chain 2: B6 chain 2 with R38K, R67K
chain 3: not shown
notes: as for B6
B10: FIT1007-12B-4 (bispecific antibody, human IgG1, kappa, L234A L235A)
chain 1: not shown
chain 2: B6 chain 2 with I48M, A68V
chain 3: not shown
notes: as for B6
B11: FIT1007-12B-6 (bispecific antibody, human IgG1, kappa, L234A L235A)
chain 1: not shown
chain 2: B6 chain 2 with R38K, R67K
chain 3: not shown
notes: as for B6
B12: FIT1007-12B-7 (bispecific antibody, human IgG1, kappa, L234A L235A)
chain 1: not shown
chain 2: B6 chain 2 with I48M, A68V
chain 3: not shown
notes: as for B6
B13: FIT1007-12B-8 (bispecific antibody, human IgG1, kappa, L234A L235A)
chain 1: not shown
chain 2: B6 chain 2
chain 3: not shown
notes: as for B6
B14: FIT1007-12B-9 (bispecific antibody, human IgG1, kappa, L234A L235A)
chain 1: not shown
chain 2: B6 chain 2 with R38K, R67K
chain 3: not shown
notes: as for B6
B15: FIT1007-12B-10 (bispecific antibody, human IgG1, kappa, L234A L235A)
chain 1: not shown
chain 2: B6 chain 2 with I48M, A68V
chain 3: not shown
notes: as for B6
B16: FIT1007-12B-11 (bispecific antibody, human IgG1, kappa, L234A L235A)
chain 1: not shown
chain 2: B6 chain 2
chain 3: not shown
notes: as for B6
B17: FIT1007-12B-12 (bispecific antibody, human IgG1, kappa, L234A L235A)
chain 1: not shown
chain 2: B6 chain 2 with R38K, R67K
chain 3: not shown
notes: as for B6
B18: FIT1007-12B-13 (bispecific antibody, human IgG1, kappa, L234A L235A)
chain 1: not shown
chain 2: QVQLQQSGPELVKPGASVKISCKASGYAFSRSWMNWVKQRPEKGLEWIGRIYPGNADIKYNANFKGKATLTADKSSSTAYMQLSSLTSEDSAVYFCAHIYYDFYYALDYWGQGTSVTVSSASTKGPSVFPLAPSSKSTSGGTAALGCLVKDYFPEPVTVSWNSGALTSGVHTFPAVLQSSGLYSLSSVVTVPSSSLGTQTYICNVNHKPSNTKVDKKVEPKSC
chain 3: not shown
notes: Chimeric ROR1 arm with CDR-H2 point mutations (AA); ROR1xCD3 FIT-Ig, no linkers
B19: FIT1007-12B-16 (bispecific antibody, human IgG1, kappa, L234A L235A)
chain 1: not shown
chain 2: B18 chain 2 with N55Q, A56G
chain 3: not shown
notes: Chimeric ROR1 arm with CDR-H2 point mutations (QA); ROR1xCD3 FIT-Ig, no linkers

Columns and labels:
[1] = molecular target: T1, human CD3 on cells (human, UniProt P07766 23-207; P04234 22-171; P09693 23-182; P20963 22-164); test: flow cytometry on CHO-CD3-TCR cells, MFI
T1 construct: the cell line is named under assay; also called human TCR/CD3 complex; CHO-CD3-TCR
Method: Briefly, 5×10⁵ cells were seeded into each well of a 96-well plate. Cells were centrifuged at 400 g for 5 minutes and supernatants were discarded. For each well, […] of serially diluted antibodies were then added and mixed with the cells. After 40 minutes of incubation at 4° C., plates were washed several times to remove excess antibodies. Secondary fluorochrome-conjugated goat anti-human IgG antibody was then added and incubated with cells at room temperature for 20 minutes. After another round of centrifugation and a washing step, cells were resuspended in FACS buffer for reading on a CytoFLEX Flow Cytometer (Beckman Coulter). Median Fluorescence Intensity (MFI) readouts were plotted against antibody concentration and analyzed with GraphPad Prism 6.0 software.

[2] = molecular target: T2, human ROR1 on cells (human, UniProt Q01973 30-937); test: flow cytometry on MDA-MB-231 cells, MFI
T2 construct: whole, on cells; the cell line is named under assay; also called CHO-ROR1; CHOK1-ROR1

[3] = molecular target: T3, recombinant human ROR1-ECD protein (human, UniProt Q01973 30-406); test: competition ELISA: biotinylated ROR1-ECD pre-mixed with the row's antibody; competitor coated on the plate: ROR1-Tab2
T3 construct: also called human ROR1 extracellular domain
Method: (§1) The binding epitope of ROR1 antibodies were identified with a competition ELISA. Briefly, 96 well plates were coated with 1 ug/mL purified antibodies and incubated overnight at 4° C. After washing with PBS containing 0.05% Tween 20, plates were blocked with blocking buffer (PBS containing 0.05% Tween 20 and 2% BSA) at 37° C. for 2 hours. Biotinylated human ROR1-ECD protein pre-mixed with ROR1 antibody (sample) or irrelevant mouse IgG (baseline) was added into plate wells and incubated at 37° C. for 1 hour before being washed 3 times. Streptavidin-HRP (1:5000 dilution) was then added into each well and incubated at 37° C. for 1 hour before being washed another 3 times. Tetramethylbenzidine (TMB) chromogenic solution was added for color development for 5 minutes then the reaction was stopped with 1M HCl. Absorbance at 450 nm (OD₄₅₀) was measured on a microplate reader. The OD450baseline represents the level of human ROR1-ECD binding to ROR1 antibodies at absence of competition, while the difference between OD450baseline and OD450ₛₐₘₚₗₑ reflects the competition between the ROR1 antibody coated on plate and the antibody in solution. The inhibition percentage was calculated by following equation: […]

[4] = molecular target: T3, recombinant human ROR1-ECD protein; test: competition ELISA: biotinylated ROR1-ECD pre-mixed with the row's antibody; competitor coated on the plate: ROR1-Tab1
Method: as §1

[5] = molecular target: T3, recombinant human ROR1-ECD protein; test: BLI (Octet RED96), antibody captured on anti-mouse IgG Fc sensors, ROR1-ECD in solution, 25 C, 1:1 fit
Method: Briefly, Anti-Mouse IgG Fc Capture (AMC) Biosensors were used to capture purified anti-ROR1 antibodies. Sensors were then dipped into solutions containing recombinant human ROR1-ECD protein to detect target protein binding to the captured antibodies. Kinetics constants were determined by processing and fitting data to a 1:1 binding model using Fortebio analysis software. Shown below in Table 2 are the results obtained for ROR1-mAb004 in comparison with two previously described anti-ROR1 monoclonal antibodies, ROR1-Tab1 is clone R12 as described in WO2014167022, and ROR1-Tab2 is clone D10 as described in WO2012097313.

[6] = molecular target: T3, recombinant human ROR1-ECD protein; test: competition ELISA: biotinylated ROR1-ECD pre-mixed with the row's antibody; competitor coated on the plate: ROR1-mAb004
Method: as §1

[7] = molecular target: T3, recombinant human ROR1-ECD protein; test: BLI (Octet RED96), FIT-Ig captured on anti-hIgG Fc sensors, ROR1 ECD at 10 ug/ml; off-rate relative to FIT1007-12B
Method: The ROR1/CD3 FIT-Ig proteins were assayed for and ranked by dissociation rate constant (koff, “off-rate”) using an Octet®RED96 biolayer interferometry (Pall FortéBio LLC). Anti-hIgG Fc Capture (AHC) Biosensors (Pall) were first exposed to antibody at a concentration of 100 nM for 30 seconds to capture antibody, then dipped into running buffer (1× pH 7.2 PBS, 0.05% Tween 20, 0.1% BSA) for 60 seconds to check baseline. Sensors with captured antibody were dipped into recombinant human ROR1 ECD protein at 10 ug/ml for 5 minutes to measure association, followed by dipped into running buffer for 1200 seconds to measure dissociation. The association and dissociation curves were fitted to a 1:1 Langmuir binding model using ForteBio Data Analysis software (Pall). The off-rate ratios were calculated by the off-rate of antibody to that of FIT1007-12B. Lower ratio indicates slower dissociation of the antibody in comparison with the parental chimeric antibody FIT1007-12B.

T3 sequence (Q01973 30-406): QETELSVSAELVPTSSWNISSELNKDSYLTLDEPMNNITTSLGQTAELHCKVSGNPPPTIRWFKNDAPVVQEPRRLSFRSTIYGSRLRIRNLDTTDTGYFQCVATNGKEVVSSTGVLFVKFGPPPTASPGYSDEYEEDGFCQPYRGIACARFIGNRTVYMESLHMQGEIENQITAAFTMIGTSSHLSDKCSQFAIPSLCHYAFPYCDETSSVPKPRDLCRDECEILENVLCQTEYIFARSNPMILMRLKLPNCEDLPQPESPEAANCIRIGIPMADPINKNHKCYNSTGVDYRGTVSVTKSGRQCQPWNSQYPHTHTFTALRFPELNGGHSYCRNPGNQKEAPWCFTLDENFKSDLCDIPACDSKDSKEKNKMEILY
T2 sequence (Q01973 30-937): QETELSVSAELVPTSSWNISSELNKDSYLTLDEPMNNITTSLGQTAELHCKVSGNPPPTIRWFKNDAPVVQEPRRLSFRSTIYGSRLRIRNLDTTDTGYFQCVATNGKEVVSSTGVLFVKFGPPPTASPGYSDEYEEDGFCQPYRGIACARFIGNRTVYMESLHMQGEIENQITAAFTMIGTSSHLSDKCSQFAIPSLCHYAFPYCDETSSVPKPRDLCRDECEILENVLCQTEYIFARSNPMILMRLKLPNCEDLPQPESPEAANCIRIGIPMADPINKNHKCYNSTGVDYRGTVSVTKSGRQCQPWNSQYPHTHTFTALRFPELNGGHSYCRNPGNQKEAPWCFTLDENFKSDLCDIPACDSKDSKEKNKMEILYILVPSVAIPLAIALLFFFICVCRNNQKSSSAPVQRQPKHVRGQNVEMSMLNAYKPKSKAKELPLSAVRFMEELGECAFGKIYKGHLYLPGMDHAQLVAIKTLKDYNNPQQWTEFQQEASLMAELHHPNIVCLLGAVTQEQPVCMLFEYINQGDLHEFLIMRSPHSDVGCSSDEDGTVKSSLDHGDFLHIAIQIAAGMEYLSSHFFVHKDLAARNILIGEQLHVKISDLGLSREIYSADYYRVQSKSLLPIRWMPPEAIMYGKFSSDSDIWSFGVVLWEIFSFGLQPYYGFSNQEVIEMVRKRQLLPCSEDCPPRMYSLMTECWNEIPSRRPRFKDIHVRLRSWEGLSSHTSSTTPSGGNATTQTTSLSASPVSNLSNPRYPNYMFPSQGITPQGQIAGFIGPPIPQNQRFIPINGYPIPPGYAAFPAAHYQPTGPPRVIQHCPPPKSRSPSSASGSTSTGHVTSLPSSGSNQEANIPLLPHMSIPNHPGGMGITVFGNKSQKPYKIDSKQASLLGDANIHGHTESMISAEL
T1 sequence (P07766 23-207 limits assumed, chain 1 of 4): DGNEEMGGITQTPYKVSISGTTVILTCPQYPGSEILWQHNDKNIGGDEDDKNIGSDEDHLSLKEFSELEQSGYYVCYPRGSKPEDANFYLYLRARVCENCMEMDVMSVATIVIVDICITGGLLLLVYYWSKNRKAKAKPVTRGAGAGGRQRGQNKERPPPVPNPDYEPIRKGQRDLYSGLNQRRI
T1 sequence (P04234 22-171 limits assumed, chain 2 of 4): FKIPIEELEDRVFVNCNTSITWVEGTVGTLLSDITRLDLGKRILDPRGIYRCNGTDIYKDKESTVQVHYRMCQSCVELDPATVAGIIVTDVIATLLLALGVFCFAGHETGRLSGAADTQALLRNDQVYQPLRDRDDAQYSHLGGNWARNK
T1 sequence (P09693 23-182 limits assumed, chain 3 of 4): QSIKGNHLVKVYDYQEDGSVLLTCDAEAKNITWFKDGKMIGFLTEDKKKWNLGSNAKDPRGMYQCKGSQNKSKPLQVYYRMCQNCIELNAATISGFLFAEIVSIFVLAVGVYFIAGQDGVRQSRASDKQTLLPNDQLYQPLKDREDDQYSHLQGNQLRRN
T1 sequence (P20963 22-164 limits assumed, chain 4 of 4): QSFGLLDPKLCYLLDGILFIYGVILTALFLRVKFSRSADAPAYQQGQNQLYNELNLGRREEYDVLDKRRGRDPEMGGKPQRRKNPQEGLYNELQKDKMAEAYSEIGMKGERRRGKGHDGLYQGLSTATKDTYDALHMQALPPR

Row | Binder | Off-rate Ratio [7] [%] | further results
1 | B1 |  | EC50 (read off the curve) [1]: ~0.3 nM
2 | B2 |  | EC50 (read off the curve) [1]: ~2 nM
3 | B3 |  | EC50 (read off the curve) [2]: ~0.4 nM
4 | B4 |  | EC50 (read off the curve) [2]: ~0.5 nM
5 | B5 |  | Inhibition % [3]: 92%; Inhibition % [4]: -21%; Kd [5]: 98.8 nM; koff [5]: 0.0321 s⁻¹; kon [5]: 325000 M⁻¹ s⁻¹; Inhibition % [6]: 56%
6 | B6 | 28.5 | 
7 | B7 | 5.25 | 
8 | B8 | 7.87 | 
9 | B9 | 11.9 | 
10 | B10 | 35.9 | 
11 | B11 | 25.8 | 
12 | B12 | 13.6 | 
13 | B13 | 15.4 | 
14 | B14 | 12 | 
15 | B15 | 36.7 | 
16 | B16 | 28.9 | 
17 | B17 | 25.2 | 
18 | B18 | 89.1 | 
19 | B19 | 139 | 
